Measurements published in the supplement of paper PMC9732359.
± gives the uncertainty stated by the source.

Assay: protein stability index of a GFP-peptide fusion (yeast GPS) (PSI 1-4); higher = more stable; sorted into four equal gates, so the index is relative within each strain
How it was run: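 Plasmids isolated from each sorting gate were PCR-amplified and Illumina-sequenced, and barcodes assigned the reads to strains. The gates, four of equal size, were set by GFP/Cherry fluorescence ratio on mid-log cultures in leucine-free medium. These cultures were yeast carrying a pooled library of tiled 17-residue yeast protein peptides fused downstream of GFP on a plasmid that also expresses Cherry. The protein stability index is the sum of every gate's read frequency times its gate number.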

Sequence | protein stability index (doa10∆) | protein stability index (pdr5∆) | protein stability index (san1∆) | protein stability index (ubr1∆)
LARRTDAPFNKVVLKAL [RPL18A] | 1.22 ± 0.057 | 1.28 ± 0.048 | 1.18 ± 0.12 | 1.45 ± 0.068
EERERKDQYVPEVSALD [RPS17A] | 2.91 ± 0.082 | 3.13 ± 0.057 | 3.17 ± 0.042 | 2.82 ± 0.049
AKKNNFIEDLAPEQQVQ [UBP6] | 2.81 ± 0.073 | 3.15 ± 0.08 | 2.99 ± 0.08 | 3.06 ± 0.065
LDDEKIFSQTTNSTYNP [YJL039C/NUP192] | 2.78 ± 0.061 | 2.85 ± 0.053 | 2.91 ± 0.062 | 3.08 ± 0.045
TCRKHTQHKVTQYKAGK [RPL42A] | 3.09 ± 0.14 | 2.85 ± 0.12 | 2.62 ± 0.07 | 2.91 ± 0.088
NHDRINISNNLQKALTV [RPN8] | 3.17 ± 0.064 | 3.29 ± 0.062 | 3.38 ± 0.038 | 3.27 ± 0.046
DSVENSSNILEDILYYS [SRB8] | 2.92 ± 0.13 | 2.74 ± 0.073 | 2.5 ± 0.058 | 2.72 ± 0.059
PYCPIASITGTGSNDRC [YMR129W/POM152] | 1.96 ± 0.099 | 1.82 ± 0.1 | 1.56 ± 0.18 | 1.64 ± 0.055
MKPSEILSLIEEAAGTK [SMC2] | 3.24 ± 0.1 | 3.23 ± 0.084 | 3.22 ± 0.083 | 3.22 ± 0.064
SKKTGQFNAQGVRDINC [POP1] | – | – | 3.16 ± 0.12 | –
EISASESKFILEALRQN [RRP45] | 2.94 ± 0.096 | 2.98 ± 0.12 | 2.88 ± 0.094 | 2.81 ± 0.074
FQQQQQQQQQQQQPQPQ [PGD1] | 2.21 ± 0.11 | 2.7 ± 0.11 | 2.46 ± 0.2 | 3.05 ± 0.21
KLLTPQDMEAAKEVYKI [GAL11] | 3.13 ± 0.14 | 3.33 ± 0.14 | 3.43 ± 0.084 | 3.49 ± 0.11
AALGEVASMELKPTNDM [SIR2] | 3.46 ± 0.13 | 3.33 ± 0.12 | 3.52 ± 0.067 | 3.17 ± 0.13
GGRYVYPVHEAHKGQIV [SNU114] | 1.58 ± 0.12 | 2.97 ± 0.11 | 3.01 ± 0.054 | 2.89 ± 0.063
HTSIRETLENGETRMKM [SMC2] | 2.65 ± 0.11 | 2.79 ± 0.13 | 2.85 ± 0.12 | 2.95 ± 0.083
HLSKSPADRPQGRRNSR [SIR4] | 2.79 ± 0.089 | 2.85 ± 0.067 | 2.75 ± 0.059 | 2.78 ± 0.058
TPDDDEIDVENHDRINI [RPN8] | 3.37 ± 0.26 | 3.5 ± 0.25 | 2.75 ± 0.17 | 2.68 ± 0.16
LKKLEKFMELERKTLER [SWI3] | 2.95 ± 0.061 | 2.84 ± 0.069 | 3.18 ± 0.046 | 2.66 ± 0.058
TNRHTLALETVLIKMVK [SIR3] | 2.84 ± 0.11 | 2.86 ± 0.072 | 2.61 ± 0.069 | 2.88 ± 0.054
KNYPEYFLKVTFLKYFG [IRR1] | 1.33 ± 0.085 | 1.54 ± 0.052 | 1.22 ± 0.14 | 1.49 ± 0.046
DSTQLLETILEEFRNLA [SSN2] | 2.69 ± 0.076 | 3.18 ± 0.065 | 2.85 ± 0.055 | 3.2 ± 0.054
PPPPPPPGYEIEELDNP [PRP8] | 2.87 ± 0.046 | 2.98 ± 0.04 | 3.04 ± 0.048 | 3.03 ± 0.033
PHIIAVACLFITISIHG [SSN8] | 1.17 ± 0.055 | 1.3 ± 0.049 | 1.34 ± 0.11 | 1.47 ± 0.062
SIREDILECDLLICIGT [SIR2] | 2.45 ± 0.058 | 2.15 ± 0.058 | 2.78 ± 0.055 | 2.39 ± 0.052
QDDEYVKDWLYDSRPLE [PRP8] | 3.25 ± 0.16 | 3.43 ± 0.11 | 3.18 ± 0.13 | 3.02 ± 0.068
